For data set [1], the target named is c-Jun (UniProt P05412). The data set is described as follows: MITOMI (QPID). The conditions noted are these: QPID microfluidic MITOMI; 1 h incubation of in vitro expressed extract (about 25 ul, 50 ng protein) with spotted Cy5-dsDNA (0.0156-2 uM spotting dilutions, PEG …).
Data set [2] deals with c-Jun;c-Fos (;) (UniProt P05412+P01100). The data set is described as follows: MITOMI (QPID). The conditions noted are these: QPID microfluidic MITOMI; 1 h incubation of in vitro expressed extract (about 25 ul, 50 ng protein) with spotted Cy5-dsDNA (0.0156-2 uM spotting dilutions, PEG …).
Data set [3] concerns the target c-Jun (Homo sapiens, UniProt P05412). The data set is described as follows: MITOMI-type chip (QPID); rabbit reticulocyte lysate, 1 h; wash 50 mM HEPES; temperature not stated; DNA spotted at 0.0156-2 uM. The conditions noted are these: tags: N-cMyc, C-His6 (kept); chain copies: 2; label: Cy5 on the primer strand.
For data set [4], the target named is c-Fos/c-Jun (Homo sapiens, UniProt P01100;P05412 full;full). The description is as above. The conditions noted are these: tags: c-Fos N-cMyc, C-His6; c-Jun HA and V5 at the termini (kept); copies: 1;1; label: Cy5 on the primer strand.
The target in data set [5] is c-Fos (Homo sapiens, UniProt P01100). The data set is described as above. The conditions noted are these: tags: N-cMyc, C-His6 (kept); label: Cy5 on the primer strand.
Data set [6] deals with T1, ATF1 (Homo sapiens, UniProt P18846).
T1 sequence: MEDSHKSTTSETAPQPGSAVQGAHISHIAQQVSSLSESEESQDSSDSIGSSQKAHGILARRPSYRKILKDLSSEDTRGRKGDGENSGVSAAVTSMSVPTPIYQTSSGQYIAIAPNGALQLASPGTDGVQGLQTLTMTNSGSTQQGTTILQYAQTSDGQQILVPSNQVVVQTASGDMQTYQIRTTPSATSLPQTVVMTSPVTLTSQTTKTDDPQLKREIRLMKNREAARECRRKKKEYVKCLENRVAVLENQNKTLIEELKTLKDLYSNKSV
Described as above. The conditions noted are these: tags: N-cMyc, C-His6 (kept); chain copies: 2; label: Cy5 on the primer strand.

c-Fos, sequence (P01100 whole entry): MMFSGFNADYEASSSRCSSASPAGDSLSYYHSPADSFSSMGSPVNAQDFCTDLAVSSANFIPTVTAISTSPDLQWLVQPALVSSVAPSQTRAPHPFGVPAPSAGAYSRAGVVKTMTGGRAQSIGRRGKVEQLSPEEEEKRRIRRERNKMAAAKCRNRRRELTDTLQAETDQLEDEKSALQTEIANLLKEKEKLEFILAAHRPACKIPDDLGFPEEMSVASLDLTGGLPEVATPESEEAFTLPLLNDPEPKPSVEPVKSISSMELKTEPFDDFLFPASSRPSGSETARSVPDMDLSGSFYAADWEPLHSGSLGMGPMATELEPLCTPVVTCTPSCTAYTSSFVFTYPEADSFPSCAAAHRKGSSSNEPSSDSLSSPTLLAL
c-Fos/c-Jun, sequence (P01100 whole entry, chain 1 of 2): as the sequence (P01100 whole entry) above
c-Fos/c-Jun, sequence (P05412 whole entry, chain 2 of 2): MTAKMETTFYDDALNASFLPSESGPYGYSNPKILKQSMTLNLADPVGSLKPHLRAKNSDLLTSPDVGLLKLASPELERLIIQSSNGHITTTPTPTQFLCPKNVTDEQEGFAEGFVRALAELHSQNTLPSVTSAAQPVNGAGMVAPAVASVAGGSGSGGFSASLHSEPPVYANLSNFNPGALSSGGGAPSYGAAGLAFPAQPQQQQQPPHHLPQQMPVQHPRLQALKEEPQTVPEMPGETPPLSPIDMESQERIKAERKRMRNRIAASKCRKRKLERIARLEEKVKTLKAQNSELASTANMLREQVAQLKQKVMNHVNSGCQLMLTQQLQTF
c-Jun;c-Fos (;), sequence (P05412 252-315, chain 1 of 2): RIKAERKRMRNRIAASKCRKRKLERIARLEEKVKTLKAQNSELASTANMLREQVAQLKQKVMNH
c-Jun;c-Fos (;), sequence (P01100 137-200, chain 2 of 2): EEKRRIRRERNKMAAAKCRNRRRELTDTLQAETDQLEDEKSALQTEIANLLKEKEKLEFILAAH
c-Jun (UniProt P05412), sequence (P05412 252-315): as the sequence (P05412 252-315, chain 1 of 2) above
c-Jun (Homo sapiens, UniProt P05412), sequence (P05412 whole entry): as the sequence (P05412 whole entry, chain 2 of 2) above

As usually defined, the Kd is the constant that tells how readily two partners part at equilibrium. Low values mean higher affinity, high ones lower affinity. With “GGCCACTACCGCTTCCTCCACATGACGTCATGGTTTTCTCCACCAAGGAAGT (double strand) [oligo 1 (CRE)]”, the Kd came to 1300 nM in data set [1] and 190 nM in data set [2].

Turning to “TTATGACCTGGGAGTGACGTCATGGAATCCACAGA (double strand) [oligo 2 (CRE)]”, the Kd in data set [1] stood at 2400 nM; in data set [2], 150 nM.

Turning to “GGCCACTACCGCTTCCTCCACATGGCGTCATGGTTTTCTCCACCAAGGAAGT (double strand) [oligo 5 (CRE half-site)]”, the Kd in data set [2] is 3500 nM.

The molecule “TTATGACCTGGGAGTGAGTCAATGGAATCCACAGA (double strand) [oligo 4 (AP-1)]” displayed a Kd in data set [2] of 500 nM.

On to “GGCCACTACCGCTTCCTCCACATGAGTCATGGTTTTCTCCACCAAGGAAGT (double strand) [oligo 3 (AP-1)]”, for which the Kd in data set [1] stood at 2500 nM; in data set [2], 270 nM.

In data set [2], “TTATCCACTTGCGCTCGCCGAGTGGCGTCACCAGCGGTACTGTAATGACGAT (double strand) [oligo 6 (CRE half-site)]” came in with a Kd of 4000 nM.

B1: oligo 3 (AP-1) (dsDNA)
DNA 1: GGCCACTACCGCTTCCTCCACATGAGTCATGGTTTTCTCCACCAAGGAAGT
DNA 2: ACTTCCTTGGTGGAGAAAACCATGACTCATGTGGAGGAAGCGGTAGTGGCC
As to B1, the Kd in data set [3] is around 2500 nM; in data set [4], 270 nM; in data set [5], above 2000 nM; in data set [6] it was around 11000 nM.

B2: oligo 1 (CRE) (dsDNA)
DNA 1: GGCCACTACCGCTTCCTCCACATGACGTCATGGTTTTCTCCACCAAGGAAGT
DNA 2: ACTTCCTTGGTGGAGAAAACCATGACGTCATGTGGAGGAAGCGGTAGTGGCC
For the molecule B2, the Kd in data set [3] was 1300 nM; in data set [4], 190 nM; in data set [5], above 2000 nM; in data set [6] it was 40 nM.

B3: oligo 5 (HS) (dsDNA)
DNA 1: GGCCACTACCGCTTCCTCCACATGGCGTCATGGTTTTCTCCACCAAGGAAGT
DNA 2: ACTTCCTTGGTGGAGAAAACCATGACGCCATGTGGAGGAAGCGGTAGTGGCC
Regarding B3, the values for the Kd in data set [4], in data set [5] and in data set [6] were around 3500 nM, above 2000 nM and 170 nM, respectively.

B4: oligo 2 (CRE) (dsDNA)
DNA 1: TTATGACCTGGGAGTGACGTCATGGAATCCACAGA
DNA 2: TCTGTGGATTCCATGACGTCACTCCCAGGTCATAA
For B4, the Kd is around 2400 nM in data set [3], 150 nM in data set [4], above 2000 nM in data set [5] and 30 nM in data set [6].

B5: oligo 4 (AP-1) (dsDNA)
DNA 1: TTATGACCTGGGAGTGAGTCAATGGAATCCACAGA
DNA 2: TCTGTGGATTCCATTGACTCACTCCCAGGTCATAA
For B5, the Kd is 500 nM in data set [4], above 2000 nM in data set [5] and around 17000 nM in data set [6].

B6: oligo 6 (HS) (dsDNA)
DNA 1: TTATCCACTTGCGCTCGCCGAGTGGCGTCACCAGCGGTACTGTAATGACGAT
DNA 2: ATCGTCATTACAGTACCGCTGGTGACGCCACTCGGCGAGCGCAAGTGGATAA
In the case of B6, the Kd in data set [4] is around 4000 nM; in data set [5], above 2000 nM; in data set [6], 40 nM.

B7: oligo 7 (Mutant) (dsDNA)
DNA 1: GGCCACTACCGCTTCCTCCACAAATAAAATTGGTTTTCTCCACCAAGGAAGT
DNA 2: ACTTCCTTGGTGGAGAAAACCAATTTTATTTGTGGAGGAAGCGGTAGTGGCC
Regarding B7, the equilibrium dissociation constant (Kd) in data set [5] and in data set [6] was above 2000 nM each time.

(Values after PMC4824076, “Integrated microfluidic approach for quantitative high-throughput measurements of transcription factor binding affinities”.)
